The record followed here is patent US20190338018A1.

This assay has as its target DNABII protein tips. Nature of the assay: cell-based or functional assay.

B1: mAb mIhfB4NTHI Fab (murine, clone 12E6.F8.D12.D5) (Fab, V domains shown)
VH: EVQLQESGAELVRSGASVKLSCTASGFNIKDYYMHWVKQRPEQGLEWIGWIDPENDDTEYVPKFQGKASMTADTSSNTAYLQLSSLTSEDTAVYYCTELGAYWGQGTLV
VL: not shown
In the case of B1, the Reduction in Biomass (in vitro vs NTHI biofilms, 171 nM, COMSTAT2, relative to nonspecific murine IgG1) amounted to 77% and the reduction in biomass of NTHI 86-028NP biofilm in vitro, relative to mAb IgG1 Fab control was determined as 74%.

B2: mAb mIhfB4NTHI (murine monoclonal IgG, clone 12E6.F8.D12.D5) (antibody, V domains shown)
VH: B1 VH
VL: not shown
In turn, B2 yielded a Reduction in Biomass (in vitro vs NTHI biofilms, 171 nM, COMSTAT2, relative to nonspecific murine IgG1) of 71%.
